Assay [1] has as its target T1, CD3 on CD8 T cells (Homo sapiens (Human), UniProt P07766 23-207).
T1 construct: Native CD3 complex on CD8 T cells among PBMCs; also called T cells (PBMCs gated with anti-human CD8 antibody)
Nature of the assay: flow cytometry, CD8 T cells in PBMCs, MFI [panel B]. The method, then: (1) PBMCs were diluted to 2×10⁶/ml with PBS and added to a 1.5 ml EP tube at 100 μl/tube, goat serum was added thereto at 10 μl/tube. The cells were blocked at 4° C. for 30 min. The serially diluted bispecific antibodies, Cross3×Trop2, Cross303×Trop2, Cross307×Trop2, Cross308×Trop2, Cross309×Trop2, Cross310×Trop2, Cross311×Trop2, Cross312×Trop2, Cross313×Trop2, Cross314×Trop2, Cross316×Trop2, Cross317×Trop2, Cross318×Trop2, Cross323×Trop2, Cross325×Trop2, Cross326×Trop2, Cross3×PDL1, Cross313×PDL1, Cross316×PDL1, Cross325×PDL1, and control hIgG1LALA (purchased from Bio-Tech) were added and incubated at 4° C. for 30 min. 1 ml of PBS was added to the EP tube, followed by centrifugation at 3500 rpm for 5 min at 4° C. The supernatant was discarded, and the system was washed again with PBS. After centrifugation, the supernatant was discarded, and the cells were resuspended with PBS at 100 μl/tube. 1 μl/tube Alexa-647-labeled goat anti-human IgG secondary antibody (purchased from Jackson lab) and 0.5 μl/tube PerCP-Cy5.5-labeled anti-human CD8 antibody were added and incubated at 4° C. in the dark for 30 min. The cells were washed twice with PBS. After centrifugation, the supernatant was discarded. The cells were resuspended with 200 μl/tube of PBS and assay is performed by flow cytometry.
(In general: In flow cytometry, cells or beads pass a laser one at a time.)

The target of assay [2] is T2, Trop2 protein (UniProt P09758 27-274).
T2 construct: Bought recombinant protein; also called Trop2-Biotin protein (biotin-labelled, bridging ELISA)
T2 sequence (looked up): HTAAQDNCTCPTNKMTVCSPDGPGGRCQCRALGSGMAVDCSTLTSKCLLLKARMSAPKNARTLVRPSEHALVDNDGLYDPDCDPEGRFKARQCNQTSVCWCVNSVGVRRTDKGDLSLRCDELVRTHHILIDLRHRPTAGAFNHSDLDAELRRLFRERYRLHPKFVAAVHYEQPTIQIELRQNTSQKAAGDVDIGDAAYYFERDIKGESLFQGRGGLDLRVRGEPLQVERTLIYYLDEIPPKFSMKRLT
The experiment in a line: ELISA, coated Trop2 protein, OD450. The essentials: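 Plates coated overnight at 4° C with Trop2 at 2 μg/ml, blocked with PBS/10% BSA; serially diluted bispecifics bound 1 h at 37° C. Detection by HRP anti-human Fab secondary, TMB 3 min, acid stop, OD450.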

In assay [3] the target is T3, CD3E&D protein (UniProt P04234 22-105).
T3 construct: Purchased from Acro; also called CD3 E&D antigens; CD3E&D antigen protein
T3 sequence (chain, as listed by the source limits assumed, chain 1 of 2): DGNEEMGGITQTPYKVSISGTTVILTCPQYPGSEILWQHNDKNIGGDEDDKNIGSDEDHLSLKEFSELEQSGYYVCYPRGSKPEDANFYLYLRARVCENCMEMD
T3 sequence (P04234 22-105 limits assumed, chain 2 of 2): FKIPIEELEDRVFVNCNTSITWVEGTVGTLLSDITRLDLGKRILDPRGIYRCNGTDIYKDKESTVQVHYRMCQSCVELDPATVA
The experiment in a line: ELISA, coated CD3E&D protein, OD450. The source says: In this example, the binding properties of the CD3×Trop2 and CD3×PDL1 bispecific antibody (the production method and the amino acid sequences of the heavy and light chains were shown in Example 1) were detected by using ELISA. The CD3E&D, Trop2, or PDL1 protein was coated onto 96-well plates by inventors, and the strength of the signal after the addition of the antibody was used to determine the binding properties of the antibody and the corresponding protein.
(1) CD3E&D protein (purchased from Acro) was diluted to 2 μg/ml with PBS buffer, added to a 96-well plate at a volume of 100 μL/well, and placed at 4° C. overnight. The PBS buffer in the 96-well plate was aspirated, and the plate was washed 6 times with PBST (pH 7.2 PBS containing 0.1% Tween 20) buffer. Then, 200 μL/well PBS/10% BSA was added and incubated at 37° C. for 2 h for blocking. The blocking solution was removed, and the plate was washed 6 times with PBST. […] The absorbance was read at 450 nm using a microplate reader.
Background: In an ELISA, binding on a coated surface is turned into a signal by an enzyme label.

Assay [4] has as its target T1, CD3 on CD8 T cells. The experiment in a line: flow cytometry, CD8 T cells in PBMCs, binding ratio % [panel A].

T1 sequence (P07766 23-207 limits assumed): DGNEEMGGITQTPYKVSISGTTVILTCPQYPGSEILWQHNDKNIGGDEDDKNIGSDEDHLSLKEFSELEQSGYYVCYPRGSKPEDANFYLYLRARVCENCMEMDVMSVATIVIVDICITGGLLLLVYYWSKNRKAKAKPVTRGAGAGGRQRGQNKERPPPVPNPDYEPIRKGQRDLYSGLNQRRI

B1: Cross311×Trop2 (bispecific antibody)
scFv: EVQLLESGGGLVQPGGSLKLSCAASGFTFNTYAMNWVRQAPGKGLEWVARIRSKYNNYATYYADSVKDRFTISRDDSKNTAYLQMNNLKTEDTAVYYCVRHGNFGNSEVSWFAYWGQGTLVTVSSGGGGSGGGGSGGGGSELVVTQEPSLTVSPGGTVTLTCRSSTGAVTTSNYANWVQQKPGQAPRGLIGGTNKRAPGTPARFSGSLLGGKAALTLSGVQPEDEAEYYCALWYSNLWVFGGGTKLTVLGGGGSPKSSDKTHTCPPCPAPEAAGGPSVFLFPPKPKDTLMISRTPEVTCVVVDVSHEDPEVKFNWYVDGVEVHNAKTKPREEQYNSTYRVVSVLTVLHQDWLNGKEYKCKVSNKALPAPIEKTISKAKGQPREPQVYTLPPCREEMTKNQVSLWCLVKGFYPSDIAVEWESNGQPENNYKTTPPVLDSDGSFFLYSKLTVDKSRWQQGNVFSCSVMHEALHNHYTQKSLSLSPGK
heavy: QVQLQQSGSELKKPGASVKVSCKASGYTFTNYGMNWVKQAPGQGLKWMGWINTYTGEPTYTDDFKGRFAFSLDTSVSTAYLQISSLKADDTAVYFCARGGFGSSYWYFDVWGQGSLVTVSSASTKGPSVFPLAPSSKSTSGGTAALGCLVKDYFPEPVTVSWNSGALTSGVHTFPAVLQSSGLYSLSSVVTVPSSSLGTQTYICNVNHKPSNTKVDKKVEPKSSDKTHTCPPCPAPEAAGGPSVFLFPPKPKDTLMISRTPEVTCVVVDVSHEDPEVKFNWYVDGVEVHNAKTKPREEQYNSTYRVVSVLTVLHQDWLNGKEYKCKVSNKALPAPIEKTISKAKGQPREPQVCTLPPSREEMTKNQVSLSCAVKGFYPSDIAVEWESNGQPENNYKTTPPVLDSDGSFFLVSKLTVDKSRWQQGNVFSCSVMHEALHNHYTQKSLSLSPGK
light: DIQLTQSPSSLSASVGDRVSITCKASQDVSIAVAWYQQKPGKAPKLLIYSASYRYTGVPDRFSGSGSGTDFTLTISSLQPEDFAVYYCQQHYITPLTFGAGTKVEIKRTVAAPSVFIFPPSDEQLKSGTASVVCLLNNFYPREAKVQWKVDNALQSGNSQESVTEQDSKDSTYSLSSTLTLSKADYEKHKVYACEVTHQGLSSPVTKSFNRGEC
The EC50 (read off the curve) is the concentration at which the effect is half-maximal. B1: the half-maximal effective concentration (EC50 (read off the curve)) is ~4 µg/mL in assay [1], ~0.008 µg/mL in assay [2], ~0.04 µg/mL in assay [3] and ~0.7 µg/mL in assay [4].
